± gives the uncertainty stated by the source.
B1: Protein S100-G, residues 1 to 79; numbered along this chain, P02633 (parent)
chain: MSAKKSPEELKGIFEKYAAKEGDPNQLSKEELKLLLQTEFPSLLKGPSTLDELFEELDKNGDGEVSFEEFQVLVKKISQ

Variants of: B1
Test: abundance fitness (aPCA) (normalised: wild type 0, dead -1); higher = more abundant; growth selection in yeast, the domain comes from the species named
Conditions: Bos taurus

Row | Variant | abundance fitness
1 | MSAFKSPEELKGIFEKYAAKEGDPNQLSKEELKLLLQTEFPSLLKGPSTLDELFEELDKNGDGEVSFEEFQVLVKKISQ | 0 ± 0.068
2 | MSAVKSPEELKGIFEKYAAKEGDPNQLSKEELKLLLQTEFPSLLKGPSTLDELFEELDKNGDGEVSFEEFQVLVKKISQ | -0.145 ± 0.066
3 | MSAHKSPEELKGIFEKYAAKEGDPNQLSKEELKLLLQTEFPSLLKGPSTLDELFEELDKNGDGEVSFEEFQVLVKKISQ | -0.004 ± 0.077
4 | MSAAKSPEELKGIFEKYAAKEGDPNQLSKEELKLLLQTEFPSLLKGPSTLDELFEELDKNGDGEVSFEEFQVLVKKISQ | -0.337 ± 0.068
5 | MSANKSPEELKGIFEKYAAKEGDPNQLSKEELKLLLQTEFPSLLKGPSTLDELFEELDKNGDGEVSFEEFQVLVKKISQ | 0.067 ± 0.072
6 | MSACKSPEELKGIFEKYAAKEGDPNQLSKEELKLLLQTEFPSLLKGPSTLDELFEELDKNGDGEVSFEEFQVLVKKISQ | -0.222 ± 0.079
7 | MSAMKSPEELKGIFEKYAAKEGDPNQLSKEELKLLLQTEFPSLLKGPSTLDELFEELDKNGDGEVSFEEFQVLVKKISQ | -0.023 ± 0.087
8 | MSALKSPEELKGIFEKYAAKEGDPNQLSKEELKLLLQTEFPSLLKGPSTLDELFEELDKNGDGEVSFEEFQVLVKKISQ | 0.051 ± 0.061
9 | MSAQKSPEELKGIFEKYAAKEGDPNQLSKEELKLLLQTEFPSLLKGPSTLDELFEELDKNGDGEVSFEEFQVLVKKISQ | -0.06 ± 0.082
10 | MSATKSPEELKGIFEKYAAKEGDPNQLSKEELKLLLQTEFPSLLKGPSTLDELFEELDKNGDGEVSFEEFQVLVKKISQ | 0.06 ± 0.068
11 | MSAPKSPEELKGIFEKYAAKEGDPNQLSKEELKLLLQTEFPSLLKGPSTLDELFEELDKNGDGEVSFEEFQVLVKKISQ | -0.097 ± 0.071
12 | MSASKSPEELKGIFEKYAAKEGDPNQLSKEELKLLLQTEFPSLLKGPSTLDELFEELDKNGDGEVSFEEFQVLVKKISQ | -0.005 ± 0.061
13 | MSAWKSPEELKGIFEKYAAKEGDPNQLSKEELKLLLQTEFPSLLKGPSTLDELFEELDKNGDGEVSFEEFQVLVKKISQ | -0.343 ± 0.087
14 | MSAYKSPEELKGIFEKYAAKEGDPNQLSKEELKLLLQTEFPSLLKGPSTLDELFEELDKNGDGEVSFEEFQVLVKKISQ | 0.01 ± 0.07
15 | MSAGKSPEELKGIFEKYAAKEGDPNQLSKEELKLLLQTEFPSLLKGPSTLDELFEELDKNGDGEVSFEEFQVLVKKISQ | -0.223 ± 0.073
16 | MSADKSPEELKGIFEKYAAKEGDPNQLSKEELKLLLQTEFPSLLKGPSTLDELFEELDKNGDGEVSFEEFQVLVKKISQ | 0.092 ± 0.08
17 | MSAEKSPEELKGIFEKYAAKEGDPNQLSKEELKLLLQTEFPSLLKGPSTLDELFEELDKNGDGEVSFEEFQVLVKKISQ | -0.154 ± 0.095
18 | MSAKISPEELKGIFEKYAAKEGDPNQLSKEELKLLLQTEFPSLLKGPSTLDELFEELDKNGDGEVSFEEFQVLVKKISQ | 0.045 ± 0.075
19 | MSAKPSPEELKGIFEKYAAKEGDPNQLSKEELKLLLQTEFPSLLKGPSTLDELFEELDKNGDGEVSFEEFQVLVKKISQ | -0.253 ± 0.068
20 | MSAKQSPEELKGIFEKYAAKEGDPNQLSKEELKLLLQTEFPSLLKGPSTLDELFEELDKNGDGEVSFEEFQVLVKKISQ | -0.222 ± 0.082
21 | MSAKNSPEELKGIFEKYAAKEGDPNQLSKEELKLLLQTEFPSLLKGPSTLDELFEELDKNGDGEVSFEEFQVLVKKISQ | -0.063 ± 0.076
22 | MSAKTSPEELKGIFEKYAAKEGDPNQLSKEELKLLLQTEFPSLLKGPSTLDELFEELDKNGDGEVSFEEFQVLVKKISQ | 0 ± 0.068
23 | MSAKMSPEELKGIFEKYAAKEGDPNQLSKEELKLLLQTEFPSLLKGPSTLDELFEELDKNGDGEVSFEEFQVLVKKISQ | -0.017 ± 0.082

Row | Variant | abundance fitness
24 | MSAKCSPEELKGIFEKYAAKEGDPNQLSKEELKLLLQTEFPSLLKGPSTLDELFEELDKNGDGEVSFEEFQVLVKKISQ | -0.252 ± 0.082
25 | MSAKRSPEELKGIFEKYAAKEGDPNQLSKEELKLLLQTEFPSLLKGPSTLDELFEELDKNGDGEVSFEEFQVLVKKISQ | -0.154 ± 0.067
26 | MSAKVSPEELKGIFEKYAAKEGDPNQLSKEELKLLLQTEFPSLLKGPSTLDELFEELDKNGDGEVSFEEFQVLVKKISQ | -0.126 ± 0.067
27 | MSAKASPEELKGIFEKYAAKEGDPNQLSKEELKLLLQTEFPSLLKGPSTLDELFEELDKNGDGEVSFEEFQVLVKKISQ | -0.037 ± 0.072
28 | MSAKFSPEELKGIFEKYAAKEGDPNQLSKEELKLLLQTEFPSLLKGPSTLDELFEELDKNGDGEVSFEEFQVLVKKISQ | -0.015 ± 0.071
29 | MSAKSSPEELKGIFEKYAAKEGDPNQLSKEELKLLLQTEFPSLLKGPSTLDELFEELDKNGDGEVSFEEFQVLVKKISQ | -0.03 ± 0.06
30 | MSAKYSPEELKGIFEKYAAKEGDPNQLSKEELKLLLQTEFPSLLKGPSTLDELFEELDKNGDGEVSFEEFQVLVKKISQ | 0.025 ± 0.071
31 | MSAKWSPEELKGIFEKYAAKEGDPNQLSKEELKLLLQTEFPSLLKGPSTLDELFEELDKNGDGEVSFEEFQVLVKKISQ | -0.575 ± 0.088
32 | MSAKESPEELKGIFEKYAAKEGDPNQLSKEELKLLLQTEFPSLLKGPSTLDELFEELDKNGDGEVSFEEFQVLVKKISQ | -0.105 ± 0.092
33 | MSAKHSPEELKGIFEKYAAKEGDPNQLSKEELKLLLQTEFPSLLKGPSTLDELFEELDKNGDGEVSFEEFQVLVKKISQ | -0.163 ± 0.074
34 | MSWKKSPEELKGIFEKYAAKEGDPNQLSKEELKLLLQTEFPSLLKGPSTLDELFEELDKNGDGEVSFEEFQVLVKKISQ | -0.178 ± 0.091
35 | MSQKKSPEELKGIFEKYAAKEGDPNQLSKEELKLLLQTEFPSLLKGPSTLDELFEELDKNGDGEVSFEEFQVLVKKISQ | -0.01 ± 0.081
36 | MSMKKSPEELKGIFEKYAAKEGDPNQLSKEELKLLLQTEFPSLLKGPSTLDELFEELDKNGDGEVSFEEFQVLVKKISQ | 0.013 ± 0.081
37 | MSNKKSPEELKGIFEKYAAKEGDPNQLSKEELKLLLQTEFPSLLKGPSTLDELFEELDKNGDGEVSFEEFQVLVKKISQ | 0.03 ± 0.087
38 | MSPKKSPEELKGIFEKYAAKEGDPNQLSKEELKLLLQTEFPSLLKGPSTLDELFEELDKNGDGEVSFEEFQVLVKKISQ | -0.137 ± 0.073
39 | MSTKKSPEELKGIFEKYAAKEGDPNQLSKEELKLLLQTEFPSLLKGPSTLDELFEELDKNGDGEVSFEEFQVLVKKISQ | -0.053 ± 0.07
40 | MSVKKSPEELKGIFEKYAAKEGDPNQLSKEELKLLLQTEFPSLLKGPSTLDELFEELDKNGDGEVSFEEFQVLVKKISQ | 0.129 ± 0.073
41 | MSLKKSPEELKGIFEKYAAKEGDPNQLSKEELKLLLQTEFPSLLKGPSTLDELFEELDKNGDGEVSFEEFQVLVKKISQ | 0.007 ± 0.063
42 | MSSKKSPEELKGIFEKYAAKEGDPNQLSKEELKLLLQTEFPSLLKGPSTLDELFEELDKNGDGEVSFEEFQVLVKKISQ | -0.123 ± 0.063
43 | MSAKKDPEELKGIFEKYAAKEGDPNQLSKEELKLLLQTEFPSLLKGPSTLDELFEELDKNGDGEVSFEEFQVLVKKISQ | -0.071 ± 0.091
44 | MSAKKQPEELKGIFEKYAAKEGDPNQLSKEELKLLLQTEFPSLLKGPSTLDELFEELDKNGDGEVSFEEFQVLVKKISQ | -0.076 ± 0.074
45 | MSAKKAPEELKGIFEKYAAKEGDPNQLSKEELKLLLQTEFPSLLKGPSTLDELFEELDKNGDGEVSFEEFQVLVKKISQ | -0.227 ± 0.07
46 | MSAKKIPEELKGIFEKYAAKEGDPNQLSKEELKLLLQTEFPSLLKGPSTLDELFEELDKNGDGEVSFEEFQVLVKKISQ | -0.121 ± 0.09

Row | Variant | abundance fitness
47 | MSAKKLPEELKGIFEKYAAKEGDPNQLSKEELKLLLQTEFPSLLKGPSTLDELFEELDKNGDGEVSFEEFQVLVKKISQ | -0.15 ± 0.063
48 | MSAKKRPEELKGIFEKYAAKEGDPNQLSKEELKLLLQTEFPSLLKGPSTLDELFEELDKNGDGEVSFEEFQVLVKKISQ | -0.232 ± 0.067
49 | MSAKKKPEELKGIFEKYAAKEGDPNQLSKEELKLLLQTEFPSLLKGPSTLDELFEELDKNGDGEVSFEEFQVLVKKISQ | -0.204 ± 0.094
50 | MSAKKFPEELKGIFEKYAAKEGDPNQLSKEELKLLLQTEFPSLLKGPSTLDELFEELDKNGDGEVSFEEFQVLVKKISQ | -0.054 ± 0.076
51 | MSAKKHPEELKGIFEKYAAKEGDPNQLSKEELKLLLQTEFPSLLKGPSTLDELFEELDKNGDGEVSFEEFQVLVKKISQ | -0.119 ± 0.079
52 | MSAKKNPEELKGIFEKYAAKEGDPNQLSKEELKLLLQTEFPSLLKGPSTLDELFEELDKNGDGEVSFEEFQVLVKKISQ | -0.161 ± 0.089
53 | MSAKKVPEELKGIFEKYAAKEGDPNQLSKEELKLLLQTEFPSLLKGPSTLDELFEELDKNGDGEVSFEEFQVLVKKISQ | -0.203 ± 0.068
54 | MSAKKEPEELKGIFEKYAAKEGDPNQLSKEELKLLLQTEFPSLLKGPSTLDELFEELDKNGDGEVSFEEFQVLVKKISQ | -0.159 ± 0.09
55 | MSAKKGPEELKGIFEKYAAKEGDPNQLSKEELKLLLQTEFPSLLKGPSTLDELFEELDKNGDGEVSFEEFQVLVKKISQ | -0.103 ± 0.072
56 | MSAKKTPEELKGIFEKYAAKEGDPNQLSKEELKLLLQTEFPSLLKGPSTLDELFEELDKNGDGEVSFEEFQVLVKKISQ | -0.03 ± 0.073
57 | MSAKKYPEELKGIFEKYAAKEGDPNQLSKEELKLLLQTEFPSLLKGPSTLDELFEELDKNGDGEVSFEEFQVLVKKISQ | -0.264 ± 0.078
58 | MSAKKMPEELKGIFEKYAAKEGDPNQLSKEELKLLLQTEFPSLLKGPSTLDELFEELDKNGDGEVSFEEFQVLVKKISQ | -0.111 ± 0.087
59 | MSAKKWPEELKGIFEKYAAKEGDPNQLSKEELKLLLQTEFPSLLKGPSTLDELFEELDKNGDGEVSFEEFQVLVKKISQ | -0.372 ± 0.091
60 | MSAKKCPEELKGIFEKYAAKEGDPNQLSKEELKLLLQTEFPSLLKGPSTLDELFEELDKNGDGEVSFEEFQVLVKKISQ | -0.398 ± 0.089
61 | MSAKKSEEELKGIFEKYAAKEGDPNQLSKEELKLLLQTEFPSLLKGPSTLDELFEELDKNGDGEVSFEEFQVLVKKISQ | 0.037 ± 0.1
62 | MSAKKSCEELKGIFEKYAAKEGDPNQLSKEELKLLLQTEFPSLLKGPSTLDELFEELDKNGDGEVSFEEFQVLVKKISQ | -0.021 ± 0.082
63 | MSAKKSKEELKGIFEKYAAKEGDPNQLSKEELKLLLQTEFPSLLKGPSTLDELFEELDKNGDGEVSFEEFQVLVKKISQ | -0.062 ± 0.076
64 | MSAKKSFEELKGIFEKYAAKEGDPNQLSKEELKLLLQTEFPSLLKGPSTLDELFEELDKNGDGEVSFEEFQVLVKKISQ | -0.066 ± 0.075
65 | MSAKKSHEELKGIFEKYAAKEGDPNQLSKEELKLLLQTEFPSLLKGPSTLDELFEELDKNGDGEVSFEEFQVLVKKISQ | -0.067 ± 0.076
66 | MSAKKSGEELKGIFEKYAAKEGDPNQLSKEELKLLLQTEFPSLLKGPSTLDELFEELDKNGDGEVSFEEFQVLVKKISQ | -0.121 ± 0.082
67 | MSAKKSDEELKGIFEKYAAKEGDPNQLSKEELKLLLQTEFPSLLKGPSTLDELFEELDKNGDGEVSFEEFQVLVKKISQ | -0.119 ± 0.092
68 | MSAKKSLEELKGIFEKYAAKEGDPNQLSKEELKLLLQTEFPSLLKGPSTLDELFEELDKNGDGEVSFEEFQVLVKKISQ | 0.013 ± 0.062
69 | MSAKKSMEELKGIFEKYAAKEGDPNQLSKEELKLLLQTEFPSLLKGPSTLDELFEELDKNGDGEVSFEEFQVLVKKISQ | 0.058 ± 0.078

From the Human Domainome abundance scans (Beltran et al. 2025)
